The target in one experiment is pak1_human PAK1 (UniProt Q13153).
Another experiment concerns the target par6b_mouse Pard6b (UniProt Q9JK83).

These results are taken from IntAct's records for PubMed 12606577.

Chain of par6b_mouse Pard6b (Q9JK83 whole entry): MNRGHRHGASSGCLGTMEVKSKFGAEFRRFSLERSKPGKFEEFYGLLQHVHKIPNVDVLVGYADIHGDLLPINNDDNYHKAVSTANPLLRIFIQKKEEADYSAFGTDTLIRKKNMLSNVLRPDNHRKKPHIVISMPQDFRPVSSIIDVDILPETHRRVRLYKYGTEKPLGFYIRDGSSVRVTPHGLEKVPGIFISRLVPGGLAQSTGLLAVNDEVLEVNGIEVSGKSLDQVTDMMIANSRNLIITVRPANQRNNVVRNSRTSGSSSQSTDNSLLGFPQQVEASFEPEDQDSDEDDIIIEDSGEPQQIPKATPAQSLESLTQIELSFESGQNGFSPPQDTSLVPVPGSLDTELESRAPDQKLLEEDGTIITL
Chain of Cell division control protein 42 homolog (Homo sapiens), P60953 Y40K (P60953 whole entry Y40K): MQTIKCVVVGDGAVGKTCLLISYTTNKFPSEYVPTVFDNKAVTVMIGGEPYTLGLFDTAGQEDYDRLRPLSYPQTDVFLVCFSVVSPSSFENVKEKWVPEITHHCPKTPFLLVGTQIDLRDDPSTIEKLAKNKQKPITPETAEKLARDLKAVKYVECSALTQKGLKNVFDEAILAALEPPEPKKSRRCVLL
Chain of pak1_human PAK1 (Q13153 whole entry): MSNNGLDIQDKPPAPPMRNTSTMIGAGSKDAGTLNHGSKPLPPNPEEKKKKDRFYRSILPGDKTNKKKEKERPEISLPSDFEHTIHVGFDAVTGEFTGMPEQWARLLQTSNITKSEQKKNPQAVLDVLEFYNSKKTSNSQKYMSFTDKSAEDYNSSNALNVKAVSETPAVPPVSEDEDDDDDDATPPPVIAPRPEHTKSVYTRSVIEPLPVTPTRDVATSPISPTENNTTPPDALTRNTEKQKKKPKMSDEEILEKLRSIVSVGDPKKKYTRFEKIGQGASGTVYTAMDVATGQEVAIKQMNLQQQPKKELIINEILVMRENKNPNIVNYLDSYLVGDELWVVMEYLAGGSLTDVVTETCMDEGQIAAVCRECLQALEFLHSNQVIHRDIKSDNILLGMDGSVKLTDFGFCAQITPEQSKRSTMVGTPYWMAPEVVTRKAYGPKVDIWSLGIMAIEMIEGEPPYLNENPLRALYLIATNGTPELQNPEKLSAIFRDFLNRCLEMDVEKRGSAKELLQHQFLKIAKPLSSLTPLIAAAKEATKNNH
Chain of Cell division control protein 42 homolog (Homo sapiens), P60953 D38A (P60953 whole entry D38A): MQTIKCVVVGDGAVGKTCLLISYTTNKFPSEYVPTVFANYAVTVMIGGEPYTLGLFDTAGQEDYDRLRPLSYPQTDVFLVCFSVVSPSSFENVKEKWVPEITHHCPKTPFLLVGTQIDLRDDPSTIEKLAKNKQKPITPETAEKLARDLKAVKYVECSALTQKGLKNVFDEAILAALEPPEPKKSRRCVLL
Chain of Cell division control protein 42 homolog (Homo sapiens), P60953 F37A (P60953 whole entry F37A): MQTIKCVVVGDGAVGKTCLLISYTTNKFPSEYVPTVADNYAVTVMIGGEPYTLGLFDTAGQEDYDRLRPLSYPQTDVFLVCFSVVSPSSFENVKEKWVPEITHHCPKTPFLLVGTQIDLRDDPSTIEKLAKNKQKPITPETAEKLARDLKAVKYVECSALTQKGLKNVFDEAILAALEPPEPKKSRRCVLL

Turning to “Cell division control protein 42 homolog (Homo sapiens), P60953 D38A”, the “effect of a mutation on the interaction” value with pak1_human PAK1 and with par6b_mouse Pard6b was “decreasing interaction” in each case.
For “Cell division control protein 42 homolog (Homo sapiens), P60953 F37A”, the “effect of a mutation on the interaction” value with par6b_mouse Pard6b is “decreasing interaction”.
With “Cell division control protein 42 homolog (Homo sapiens), P60953 Y40K”, the “effect of a mutation on the interaction” value in the experiment with pak1_human PAK1 and with par6b_mouse Pard6b was “decreasing interaction” throughout.
